The values below come from patent US20220154204A1 (University of California, published 2022).

For this experiment, the target named is T1, nYFP-GEF1 (UniProt Q93ZY2 1-548).
T1 construct: BiFC positive control partner; also called RopGEF1; not shown: N-terminal YFP fragment (nYFP) from BiFC vector pSPYNE173
T1 sequence (looked up): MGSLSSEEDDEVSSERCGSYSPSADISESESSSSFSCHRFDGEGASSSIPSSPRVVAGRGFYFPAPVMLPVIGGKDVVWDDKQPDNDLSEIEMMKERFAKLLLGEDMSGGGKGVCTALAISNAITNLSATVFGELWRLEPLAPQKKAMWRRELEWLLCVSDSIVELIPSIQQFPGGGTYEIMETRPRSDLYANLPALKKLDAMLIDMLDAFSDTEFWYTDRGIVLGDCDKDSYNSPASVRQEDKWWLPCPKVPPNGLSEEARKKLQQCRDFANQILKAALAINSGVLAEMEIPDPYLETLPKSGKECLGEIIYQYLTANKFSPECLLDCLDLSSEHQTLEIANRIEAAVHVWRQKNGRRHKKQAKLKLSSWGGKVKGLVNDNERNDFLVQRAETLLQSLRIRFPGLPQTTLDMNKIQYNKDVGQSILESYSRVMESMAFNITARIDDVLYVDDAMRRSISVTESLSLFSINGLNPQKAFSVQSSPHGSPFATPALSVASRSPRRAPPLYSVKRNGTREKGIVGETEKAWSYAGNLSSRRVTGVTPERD
In words: BiFC in Nicotiana benthamiana leaves, positive control. The protocol: a, Co-immunoprecipitation experiments using transiently expressed M3Kδ6 and OST1/SnRK2.6 in Arabidopsis mesophyll cell protoplasts. OST1/SnRK2.6-GFP or GFP control co-expressed with M3Kδ6-FLAG were immunoprecipitated with GFP antibodies. Precipitated proteins were analyzed by immunoblots using GFP or FLAG antibody. b and c, BiFC analyses of nYFP-M3Kδ6 (b) or nYFP-M3Kδ7 (c) with OST1/SnRK2.6-cYFP, SnRK2.2-cYFP, 2.4-cYFP and 2.10-cYFP infiltrated in 6-week-old Nicotiana benthamiana leaves. nYFP-GEF1/cYFP-ABI1 combination was used as a positive control. All images are at the same scale. Scale bars=50 μm. d and e, BiFC quantifications measured from maximal projections of z-stacks and normalized over an infiltration control expressing p19 only. BiFC quantifications were analyzed by one-way ANOVA followed by Tukey's tests. Confocal images were acquired using identical settings for each BiFC experiment. Means±s.e.m. (n=45).

B1: cYFP-ABI1 (enzyme, UniProt P49597 1-434, looked up)
chain: MEEVSPAIAGPFRPFSETQMDFTGIRLGKGYCNNQYSNQDSENGDLMVSLPETSSCSVSGSHGSESRKVLISRINSPNLNMKESAAADIVVVDISAGDEINGSDITSEKKMISRTESRSLFEFKSVPLYGFTSICGRRPEMEDAVSTIPRFLQSSSGSMLDGRFDPQSAAHFFGVYDGHGGSQVANYCRERMHLALAEEIAKEKPMLCDGDTWLEKWKKALFNSFLRVDSEIESVAPETVGSTSVVAVVFPSHIFVANCGDSRAVLCRGKTALPLSVDHKPDREDEAARIEAAGGKVIQWNGARVFGVLAMSRSIGDRYLKPSIIPDPEVTAVKRVKEDDCLILASDGVWDVMTDEEACEMARKRILLWHKKNAVAGDASLLADERRKEGKDPAAMSAAEYLSKLAIQRGSKDNISVVVVDLKPRRKLKSKPLN
notes: BiFC positive control partner; order of tag and protein as the printed name gives it; not shown: C-terminal YFP fragment (cYFP) from BiFC vector pSPYCE(M)
Take B1: the binding result is recorded as “binds”.
